Laboratory results published in paper PMC10465357.

These substances were tested against 14-3-3 proteins (assay: Western blot of purified virions, quantified). Conditions: read off a plot.

Q: How did the ratio to parent turn out when UL32 (also known as pp150) 3/4mut was run?
A: The ratio to parent was 0.06.

Q: For UL32 (also known as pp150) 3mut, which ratio to parent is on record?
A: The ratio to parent was 0.48.

Q: With UL32 (also known as pp150) 4/5mut as the substance, how does the ratio to parent read?
A: Its ratio to parent is 0.02.
